In one test the test system is ZR-75-1 cells. The test is described as follows: GFP-TR3/ΔDBD localization and cytochrome c release in ZR-75-1 cells. Format: cell-based. To be noted: ZR-75-1, absence of any treatment. Here is the method: Subcellular localization assays—Cells were seeded onto cover-slips in 6-well plates overnight, then transiently transfected with GFP-fusion expression plasmids. After 16 hours, cells were washed with PBS and fixed in 4% paraformaldehyde. For mitochondrial staining, cells were then incubated with anti-Hsp60 goat IgG (Santa Cruz, USA), followed by anti-goat IgG conjugated with Cy3 (Sigma). For cyt c staining, cells were incubated with monoclonal anti-cyt c IgG (PharMingen), followed by anti-mouse IgG conjugated with Cy5 (Amersham). Fluorescent images were collected and analyzed using a MRC-1024 MP laser-scanning confocal microscope (Bio-Rad). Subcellular fractionation assays were performed as described (Li, et al. 2000 Science 289:1159-1164). Briefly, cells (1×10^7 cells) suspended in 0.5 ml hypotonic buffer (5 mM Tris-HCl, pH 7.4, 5 mM KCl, 1.5 mM MgCl2, 0.1 mM EGTA, pH 8.0, and 1 mM DTT) were homogenized and cell extracts were centrifuged at 500×g for 5 min. […]
To study whether the TR3 nuclear-to-mitochondrial targeting pathway also occurs in breast cancer cells, a GFP-TR3 fusion construct was transfected into MDA-MB-231 cells. […] Next, GFP-TR3/ΔDBD was transiently transfected into ZR-75-1 or MDA-MB-231 cells, stained for mitochondria (Hsp60) and cytochrome c (Cyt c), and analyzed by confocal microscopy.

Test [1] deals with Bcl-2 mutants Y108K, L137A, G145A, R146Q. Put plainly: Co-IP assay with Bcl-2 hydrophobic groove mutants in HEK293T cells. Format: binding. Here is the method: TR3/Bcl-2 interaction assays—Reporter gene assays using NurRE-tk-CAT in CV-1 cells, and GST pull-down assay were described previously (Li, et al. 2000 Science 289, 1159-1164). For the mammalian two-hybrid assays, CV-1 cells were co-transfected with pcDNA-Gal4TAD-TR3 or pcDNA-Gal4TAD-TR3/ΔDBD and pcDNA-Gal4DBD-Bcl-2/ΔTM along with a luciferase reporter gene driven by four copies of the Gal4-binding site. The cells were harvested and reporter gene activity was measured. […] Immunoreactive products were detected by chemiluminescence with an enhanced chemiluminescence system (ECL) (Amersham).
Binding of BH3 domain to Bcl-2 is mediated by a hydrophobic cleft formed by the BH1, BH2, and BH3 region of Bcl-2 (Sattler et al. 1997 Science 275:983-986). To determine whether TR3/ΔDBD bound to the Bcl-2 hydrophobic groove, several Bcl-2 mutants with mutations of amino acids, Tyr108, Leu137, or Arg146, critical for the formation of the hydrophobic cleft, were analyzed for their interaction with TR3/ΔDBD. […] The Bcl-2 mutants, Y108KBcl-2, L137ABcl-2 and R146QBcl-2, were analyzed for their interaction with GFP-TR3/ΔDBD in 293T cells by Co-IP assay as described in Example 2. […]

The next test deals with T1, Bcl-2/1-80 (Homo sapiens, UniProt P10415).
T1 construct: a fragment of Bcl-2 comprising the first 80 amino acids (Bcl-2/1-80); expressed in transfected cells; host or cells: HEK293T
Put plainly: Co-IP assay with Bcl-2/1-80. In kind it is binding. As to the method:
(§1) Therefore, TR3/ΔDBD was analyzed as to its interaction with a fragment of Bcl-2 comprising the first 80 amino acids (Bcl-2/1-80). […] The Bcl-2/1-80 fragment encompasses the N-terminal BH4 domain followed by an unstructured loop domain of approximately 50 amino acids length. To determine whether the BH4 domain or the loop region was responsible for binding to TR3/ΔDBD, TR3/ΔDBD interaction with Bcl-2 mutants lacking the BH4 domain (Bcl-2/ΔBH4) or the loop region (Bcl-2/ΔLoop) was analyzed. […] Thus, the loop region of Bcl-2 is involved in binding to TR3.
Deletion of the loop region of Bcl-2 completely blocks paclitaxel-induced apoptosis (Rakesh et al. 1999 PNAS USA 96:3775-3780). To further investigate whether the loop region of Bcl-2 is responsible for its interaction with TR3/ΔDBD, TR3/ΔDBD was co-transfected with the first 80-residue fragment of Bcl-2 including the loop region and BH4 domain.

The next test deals with Bcl-2/ΔLoop. The test is described as follows: Co-IP assay with Bcl-2/ΔLoop. Format: binding. As to the method: as §1
Test [2] relates to peripheral blood lymphocytes (PBLs). The test is described as follows: Apoptosis of peripheral blood lymphocytes. The note with it: annexin V-staining, transfection. In kind it is cell-based, human.
Description: Isolation and transfection of human peripheral blood lymphocytes (PBLs)—Leukocyte-enriched buffy coats from San Diego Blood Bank were diluted with 2 volumes of PBS, and PBLs were isolated by centrifuge on Ficoll-paque™ Plus (Amersham Pharmacia biotech). The mononuclear cells were cultured in RPMI containing 10% FBS and 20 μM Hepes. Freshly isolated cells (10^7 cells per transfection) were washed once with PBS containing 0.5% BSA and supernatant was completely discarded so that no residual PBS/BSA covers the pellet. The cells were resuspended in 100 μl of the human T Cell Nucleofector™ solution (Amexa biosystems) and very gently mixed with 1-4 μg DNA in 5 μl. The cell suspension was transferred into a cuvette supplied by Amexa biosystems and electroporated using U-14 program of Nucleofector™ device. The cells were removed from the cuvette quickly by adding 500 μl of the pre-warmed RPMI medium containing 10% FBS and 20 μM Hepes and transferred into 12 well plates containing 1.5 ml of pre-warmed culture medium.

T1 sequence (P10415 1-80): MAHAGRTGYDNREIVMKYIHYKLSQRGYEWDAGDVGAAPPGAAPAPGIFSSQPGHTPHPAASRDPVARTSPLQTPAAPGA
Chain of Bcl-2 mutants Y108K, L137A, G145A, R146Q (P10415 1-80 limits assumed, stated change not applied): as the sequence (P10415 1-80) above

B1: TR3/ΔDBD: TR3 mutant with the DNA binding domain removed; used as GFP fusion (protein)
chain: MPCIQAQYGTPAPSPGPRDHLASDPLTPEFIKPTMDLASPEAAPAAPTALPSFSTFMDGYTGEFDTFLYQLPGTVQPCSSASSSASSTSSSSATSPASASFKFEDFQVYGCYPGPLSGPVDEALSSSGSDYYGSPCSAPSPSTPSFQPPQLSPWDGSFGHFSPSQTYLVLHRLQCARGFGDWIDSILAFSRSLHSLLVDVPAFACLSALVLITDRHGLQEPRRVEELQNRIASCLKEHVAAVAGEPQPASCLSRLLGKLPELRTLCTQGLQRIFYLKLEDLVPPPPIIDKIFMDTLPF
modifications: left off: large carriers; small tags and cut ends
notes: used as GFP fusion
For the molecule B1, in the test with ZR-75-1 cells, the GFP-TR3/ΔDBD subcellular localization entry was “targeted to mitochondria” and the cytochrome c release result was “caused release of cytochrome c from the mitochondria”. The “binding of Bcl-2 hydrophobic groove mutants to TR3/ΔDBD (Co-IP)” value in test [1] is “still capable of binding”. In the test with Bcl-2/1-80, the “interaction with Bcl-2/1-80 (Co-IP)” value was “strongly interacted”. For the same molecule, in the test on Bcl-2/ΔLoop, the “interaction with Bcl-2/ΔLoop (Co-IP)” value is listed as “did not”. Further, in test [2], the PBL apoptosis result is “potently induced PBL apoptosis”.
